According to US20220112296A1:

Molecular target: biotinylated CD3 epsilon epitope peptide
Assay: SPR Biacore, method of Ref. Ex. 11

- Kd: 110 nM
B1: CE115HA000 (antibody, V domains shown)
VH: QVQLVESGGGVVQPGRSLRLSCAASGFTFSNAWMHWVRQAPGKGLEWVAQIKAKSNNYATYYAESVKGRFTISRDDSKNSLYLQMNSLKTEDTAVYYCRYVHYGAYYGVDAWGQGTTVTVSS
VL: DIVMTQSPLSLPVTPGEPASISCRSSQSLVHSNRNTYLHWYQQKPGQAPRLLIYKVSNRFSGVPDRFSGSGSGTDFTLKISRVEAEDVGVYYCGQGTQVPYTFGQGTKLEIK
